The values below are quoted from earlier work in PMC5992718.

The data set addresses PD-L1 (Homo sapiens) (UniProt Q9NZQ7).
Sequence of UniProt Q9NZQ7 (Q9NZQ7 19-238): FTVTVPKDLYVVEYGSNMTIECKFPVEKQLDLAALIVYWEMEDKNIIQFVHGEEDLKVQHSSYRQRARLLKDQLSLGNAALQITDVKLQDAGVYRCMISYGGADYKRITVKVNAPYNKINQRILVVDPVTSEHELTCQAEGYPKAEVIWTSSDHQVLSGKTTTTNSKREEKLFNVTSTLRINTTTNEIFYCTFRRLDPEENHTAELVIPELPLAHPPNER

As usually defined, the Kd is the constant that tells how readily two partners part at equilibrium. As to PD-1 (from UniProt Q02242), the Kd was 29.8 µM.
